Substitutions are numbered along the chain they refer to. Names and notes keep the numbering of the source.

The data set deals with the molecule itself. Description: nonreducing SDS-PAGE + capillary gel electrophoresis (2100 Bioanalyzer); purified His6-tagged BsTrxA proteins alone, ~2.5 μg a lane, nonreducing conditions (no DTT, no AMS); peak integration for dimer-to-monomer ratios; dimer to monomers (Fig. 2a).

B1: C32S single-mutant BsTrxA, C-terminal His6-tag (enzyme, B. subtilis 168, UniProt P14949 1-104, looked up)
chain: MAIVKATDQSFSAETSEGVVLADFWAPWCGPSKMIAPVLEELDQEMGDKLKIVKIDVDENQETAGKYGVMSIPTLLVLKDGEVVETSVGFKPKEALQELVNKHL
notes: In the homodimer the two chains are joined by a Cys29-Cys29 disulfide bond (crystal structure 2VOC); Vector probably adds Leu-Glu before His6 (surmised); also called C32S BsTrxA; TrxA C32S; source: E. coli BL21(DE3), purified (nickel IMAC HisTrap HP, Superdex 75 gel filtration); not shown: His6, C-terminal, kept
The stoichiometry N is the number of molecules, sites or subunits per partner or assembly. Regarding B1, the “stoichiometry N” value came to 2.

B2: C29S single-mutant BsTrxA, C-terminal His6-tag (enzyme, B. subtilis 168, UniProt P14949 1-104, looked up)
chain: B1 chain with C29S, S32C
notes: Vector probably adds Leu-Glu before His6 (surmised); also called C29S BsTrxA; BsTrxA(C29S); source: E. coli BL21(DE3), purified (nickel IMAC HisTrap HP, Superdex 75 gel filtration); not shown: His6, C-terminal, kept
In the case of B2, the “stoichiometry N” value is 2.

Values taken from paper PMC2896474, “Thioredoxin A Active-Site Mutants Form Mixed Disulfide Dimers That Resemble Enzyme–Substrate Reaction Intermediates” (Journal of Molecular Biology, 2008).
